In patent publication US20250074972A1, “ANTIBODIES AND METHODS FOR GENERATING THE SAME” (priority 2021, published 2025):

B1: 1D2: Utr2 antibody; SEQ ID NO: 24 (protein)
scFv: QVQLVQSGAEVKKPGASVKVSCKASGYSFTNYDIYWVRQATGQGLEWVGFINPKTGKTGYAQKFQGRVTMSRDTSITTAYMELNSLTSEDTAVYYCASISGYWGQGTLVTVSSLEGGGGSGGGGSGGGASDIVMTQSPLSLPVTLGQPASISCRSSQSLVYSDGNTYLNWFQQRPGQSPRRLIYKVSNRDSGVPDRFSGSGSGTDFTLKISRVEAEDAGLYYCMQGSHWPPTFGQGTKVEIKR
modifications: 1D2 Amino Acid Sequence
B2: 1C2: Utr2 antibody; SEQ ID NO: 14 (protein)
scFv: QVQLVQSGAEVKKPGASVKVSCKASGYTFTSYAMHWVRQAPGQRLEWMGWINAGNGNTKYSQKFQGRVTITRDTSASTAYMELSSLRSEDTAVYYCARGGAAAGYYMDVWGKGTLVTVSSLEGGGGSGGGGSGGGASNFMLTQPHSVSESPGKTVTISCTRSSGSIASNYVQWYQQRPGSSPTTVIYDDNQRPSGVPDRFSASIDSSSNSASLTISGLKTEDEADYYCQSYDSSIVVFGGGTKLTVLG
modifications: 1C2 Amino Acid Sequence
B3: 1B1: Utr2 antibody; SEQ ID NO: 10 (protein)
scFv: QGQLVQSGGGVVQPGRSLRLSCAASGFTFSSYAMHWVRQAPGKGLEWVAVISYDGSNKYYADSVKGRFTISRDNSKNTLYLQMNSLRAEDTAVYYCARIAHPRTRGGKEVEYFQHWGQGTLVTVSSLEGGGGSGGGGSGGGASDIVMTQTPLSSPVTLGQPASISCRSSQSLVYSDGNTYLNWFQQRPGQSPRRLIYKVSNRDSGVPDRFSGSGSGTDFTLKISRVEAEDVGVYYCMQGTHWPPSFGQGTKLEIKR
modifications: 1B1 Amino Acid Sequence
B4: B5: Utr2 antibody; SEQ ID NO: 12 (protein)
scFv: QVQLVESGGGVVQPGRSLRLSCAASGFTFSSYGMHWVRQAPGKGLEWVAVISYDGSNKYYADSVKGRFTISRDNSKNTLYLQMNSLKTEDTAQYYCVRVRRSGMARGLIDYWGQGTLVTVSSLEGGGGSGGGGSGGGASSYELTQDPAVSVALGQTVRITCQGDILRSYYASWYQQKPGQAPVLVIYGKNNRPSGIPDRFSGSSSGNTASLTITGAQAEDEADYYCNSRDSSGNHKVFGGGTKVTVLG
modifications: B5 Amino Acid Sequence
B5: D3: Utr2 antibody; SEQ ID NO: 26 (protein)
scFv: QMQLVQSGAEVKKPGESLKISCKGSGYSFTSYWIGWVRQMPGKGLEWMGIIYPGDSDTRYSPSFQGQVTISADKSISTAYLQWSSLKASDTAMYYCARLKTGDQLPDIWGQGTMVTVSSLEGGGGSGGGGSGGGASDIVMTQTPLSLSVTPGQPASISCKSSQSLLHSDGKTYLYWYLQKPGQPPQLLIYEVSNRFSGVPDRFSGSGSGTDFTLKISRVEAEDVGVYYCMQTIQLPATFGGGTKLEIRR
modifications: D3 Amino Acid Sequence
B6: C8: Utr2 antibody; SEQ ID NO: 18 (protein)
scFv: EVQLVQSGAEVKKPGSSVKVSCKASGGTFSSYAISWVRQAPGQGLEWMGIINPSGGSTSYAQKFQGRVTMTRDTSTSTVYMELSSLRSEDTAVYYCARGTKGKDYYYMDVWGKGTLVTVSSLEGGGGSGGGGSGGGASDIQMTQSPSSLSASVGDRVTITCRASQSISTYLNWYQQKPGTAPNLLIYGASNLQSGVPSRFSGSGSGTDFTLTISSLQPEDFATYYCQQSYSTPLTFGGGTKVDIKR
modifications: C8 Amino Acid Sequence

How the values were obtained:
[1] = test system: A. fumigatus AF293/FGSC1100 hyphae; experiment: Whole cell binding ELISA, A. fumigatus hyphae; parameters: species or system Aspergillus fumigatus; conditions: starting concentration 100 μg/ml scAb
Procedure: C. albicans Utr2 shares certain degree of sequence similarity with S. cerevisiae Utr2, S. cerevisiae Crh1 and an Aspergillus fumigatus allergen Aspf9, with highly conserved putative glycosyl hydrolase domains (Alberti-Segui et al., 2004). The cross-reactivity of selected Utr2 scAbs to A. fumigatus was tested by performing a whole cell binding ELISA using C. albicans SC5314 and A. fumigatus AF293/FGSC1100 strains. To induce hyphal formation, wells of a MaxiSorp flat-bottom 96 well plate was coated with approximately 10^6 overnight grown cells diluted in DMEM or RPMI-1640 modified medium containing 10% heat-inactivated foetal calf serum (FCS) and incubated at 37° C. for 2-20 h. Cells were washed three times in PBS+0.05% Tween, blocked with 1.5% bovine serum albumin (BSA), and incubated at room temperature for 1 h. Cells were washed as before and a starting concentration of 100 μg/ml scAb in 1% blocking buffer was added in duplicate in doubling dilutions and incubated at room temperature for 1.5 h. After washing, cells were incubated with anti-human C kappa peroxidase antibody as described previously. Following incubation for 45 min at room temperature, wells were washed and stained with tetramethylbenzidine (TMB) and read at an absorbance of 450 nm in a VersaMax microplate reader (Molecular Devices, USA).

[2] = test system: C. albicans WT and Utr2 overexpression strains; experiment: Immunofluorescence staining of C. albicans using Utr2 scAbs; type: cell-based, Candida albicans; conditions: scAb 10 μg/ml (1D2 repeated at 50 μg/ml)
Procedure: Overnight grown C. albicans WT and Utr2 overexpression strains were diluted and left to adhere on a poly-L-lysine glass slide for 1 h. To induce hyphal growth the cells were grown in DMEM medium containing 10% heat-inactivated foetal calf serum (FCS) and incubated at 37° C. for 2 h. Cells were washed three times in Dulbecco's phosphate-buffered saline (DPBS) and fixed with 4% paraformaldehyde at room temperature for 15 minutes. After washing, cells were blocked with 1.5% BSA and incubated for 1 h. Cells were washed as before and stained with Utr2 scAbs at 10 μg/ml for 1 h at room temperature. After washing, cells were stained with FITC-labelled anti-human kappa light chain antibody (1 μg/ml) and incubated at room temperature for 1 h. Cells were washed again and stained with 25 μg/ml of Calcofluor white (CFW) to illuminate chitin-containing structures. Mounting medium was added with a coverslip before images were taken using an UltraVIEW® Vox spinning disk confocal microscope (Perkin Elmer, Waltham, Mass, USA). Calcofluor white stain was viewed at lower brightness (×1) and FITC stain was viewed at higher brightness (×8). Calcofluor white stained the chitin rich cell wall as well as septa of both C. albicans strains.
The immunofluorescence staining was repeated for 1D2 scAb with higher concentration of scAb (50 μg/ml) and FITC-labelled anti-human kappa light chain antibody (5 μg/ml). […]

[3] = test system: C. albicans WT strain SC5314; experiment: Candida albicans growth inhibition assay; type: cell-based; conditions: OD 405 nm
Procedure: The antifungal activity of Utr2 scAbs was assessed by measuring the growth of fungal cells in microtitre plates. A growth assay was carried out with C. albicans WT strain SC5314 and using caspofungin as a positive control. A starting concentration of 100 μg/ml was prepared for the test scAbs (B5, C8, D3, 1H3, 1B1 and 1D2) and caspofungin and these were double diluted in a 96 well microtitre plate in designated wells. The wells were inoculated using 50 μl 2×10^6 cells/ml diluted in RPMI-1640 medium and incubated for 24 h and 48 h at 37° C. Cell growth was determined by measuring optical density at 405 nm in a spectrophotometer.

[4] = after 24 h, top concentration of 100 μg/ml

Row | Molecule | cross-reactivity to A. fumigatus hyphae [1] | immunofluorescence staining [2] | growth inhibition [3, 4] [%] | growth inhibition ([3]; after 48 h incubation)
1 | B1 | cross-reactive | specifically stained the hyphal tips and bud surface |  | 
2 | B2 | cross-reactive |  |  | 
3 | B3 | cross-reactive | minimal staining |  | 
4 | B4 |  |  | 40 | No further reduction
5 | B5 |  |  |  | approximately 40%
6 | B6 |  |  | 40 | No further reduction
